Laboratory results from paper PMC4768256, “Using mutagenesis to explore conserved residues in the RNA-binding groove of influenza A virus nucleoprotein for antiviral drug development” (Scientific Reports, 2016).
Like-named read-outs stand apart in the source and are kept apart here.

What was measured:
[1] = biological target: NP WT (Influenza A virus A/TW/12/2001 (H1N1)) (UniProt Q07FI1); assay: SPR
[2] = biological target: NP WT (Influenza A virus A/TW/12/2001 (H1N1)) (UniProt Q07FI1); assay: SPR; remark: listed apart in the source

Chain of NP WT (Influenza A virus A/TW/12/2001 (H1N1)) (Q07FI1 whole entry): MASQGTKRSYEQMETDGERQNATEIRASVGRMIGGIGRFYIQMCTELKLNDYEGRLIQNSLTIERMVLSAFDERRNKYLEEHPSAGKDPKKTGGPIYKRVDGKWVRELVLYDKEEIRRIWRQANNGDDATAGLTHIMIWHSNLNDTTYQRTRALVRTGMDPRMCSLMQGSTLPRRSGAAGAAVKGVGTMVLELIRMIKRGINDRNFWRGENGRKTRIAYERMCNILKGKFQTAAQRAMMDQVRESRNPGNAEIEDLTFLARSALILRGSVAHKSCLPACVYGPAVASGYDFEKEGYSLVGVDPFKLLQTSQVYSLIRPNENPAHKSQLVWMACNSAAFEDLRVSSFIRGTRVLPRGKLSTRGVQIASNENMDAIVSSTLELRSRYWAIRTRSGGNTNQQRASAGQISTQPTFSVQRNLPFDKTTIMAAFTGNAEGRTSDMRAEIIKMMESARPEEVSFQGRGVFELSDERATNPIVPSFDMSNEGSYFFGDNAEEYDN

Sequence: UCCAAACUCCAAACUCCAAACUCCAAAC [(UCCAAAC)4 RNA]
- Kd [1]: 10.4 nM
- Kd [2]: 8.27 nM
